T1: HPV51 E7 protein, recombinant (His-TEV-E7 fusion from E. coli) (Human Papilloma Virus type 51 (HPV51), UniProt P26558 1-101, CKII phosphorylation of the consensus site serines in the antigen preparation of Example 2)
T1 construct: mature; also called VE7_HPV51; not shown: N-terminal 6x Histidine tag and TEV cleavage site of the vector
T1 sequence: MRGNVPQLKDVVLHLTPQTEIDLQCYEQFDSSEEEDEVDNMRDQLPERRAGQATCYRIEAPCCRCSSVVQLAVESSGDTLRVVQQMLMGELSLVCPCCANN

T2: HPV56 E7 protein, recombinant (His-TEV-E7 fusion from E. coli) (Human Papilloma Virus type 56 (HPV56), UniProt P36833 1-105, CKII phosphorylation of the consensus site serines in the antigen preparation of Example 2)
T2 construct: mature; also called VE7_HPV56; not shown: N-terminal 6x Histidine tag and TEV cleavage site of the vector
T2 sequence: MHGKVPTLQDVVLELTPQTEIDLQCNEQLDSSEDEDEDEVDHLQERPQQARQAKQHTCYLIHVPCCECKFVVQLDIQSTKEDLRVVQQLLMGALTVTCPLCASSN

T3: HPV35 E7 protein, recombinant (His-TEV-E7 fusion from E. coli) (Human Papilloma Virus type 35 (HPV35), UniProt P27230 1-99, CKII phosphorylation of the consensus site serines in the antigen preparation of Example 2)
T3 construct: mature; also called VE7_HPV35; not shown: N-terminal 6x Histidine tag and TEV cleavage site of the vector
T3 sequence: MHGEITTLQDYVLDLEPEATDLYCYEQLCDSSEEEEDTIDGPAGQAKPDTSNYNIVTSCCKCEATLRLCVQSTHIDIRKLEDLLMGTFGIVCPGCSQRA

T4: HPV58 E7 protein, recombinant (His-TEV-E7 fusion from E. coli) (Human Papilloma Virus type 58 (HPV58), UniProt P26557 1-98, CKII phosphorylation of the consensus site serines in the antigen preparation of Example 2)
T4 construct: mature; also called VE7_HPV58; not shown: N-terminal 6x Histidine tag and TEV cleavage site of the vector
T4 sequence: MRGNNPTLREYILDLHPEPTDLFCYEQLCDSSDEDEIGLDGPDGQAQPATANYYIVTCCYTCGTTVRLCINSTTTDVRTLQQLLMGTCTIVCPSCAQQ

T5: HPV45 E7 protein, recombinant (His-TEV-E7 fusion from E. coli) (Human Papilloma Virus type 45 (HPV45), UniProt P21736 1-106, CKII phosphorylation of the consensus site serines in the antigen preparation of Example 2; biotin on primary amines in the SPR assay)
T5 construct: mature; also called VE7_HPV45; not shown: N-terminal 6x Histidine tag and TEV cleavage site of the vector
T5 sequence: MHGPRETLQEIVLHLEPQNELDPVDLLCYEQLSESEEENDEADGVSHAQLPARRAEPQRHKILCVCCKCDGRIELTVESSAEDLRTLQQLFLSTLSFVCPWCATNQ

T6: HPV18 E7 protein, recombinant (His-TEV-E7 fusion from E. coli) (Human Papilloma Virus type 18 (HPV18), UniProt P06788 1-105, CKII phosphorylation of the consensus site serines in the antigen preparation of Example 2; biotin on primary amines in the SPR assay)
T6 construct: mature; also called VE7_HPV18; not shown: N-terminal 6x Histidine tag and TEV cleavage site of the vector
T6 sequence: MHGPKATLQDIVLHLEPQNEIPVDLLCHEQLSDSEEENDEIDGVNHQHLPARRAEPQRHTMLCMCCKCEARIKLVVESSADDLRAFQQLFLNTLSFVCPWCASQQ

T7: HPV31 E7 protein, recombinant (His-TEV-E7 fusion from E. coli) (Human Papilloma Virus type 31 (HPV31), UniProt P17387 1-98, CKII phosphorylation of the consensus site serines in the antigen preparation of Example 2)
T7 construct: mature; also called VE7_HPV31; not shown: N-terminal 6x Histidine tag and TEV cleavage site of the vector
T7 sequence: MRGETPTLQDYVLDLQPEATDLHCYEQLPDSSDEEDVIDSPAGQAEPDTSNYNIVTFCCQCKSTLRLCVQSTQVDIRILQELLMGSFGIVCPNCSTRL

T8: HPV33 E7 protein, recombinant (His-TEV-E7 fusion from E. coli) (Human Papilloma Virus type 33 (HPV33), UniProt P06429 1-97, CKII phosphorylation of the consensus site serines in the antigen preparation of Example 2; biotin on primary amines in the SPR assay)
T8 construct: mature; also called VE7_HPV33; not shown: N-terminal 6x Histidine tag and TEV cleavage site of the vector
T8 sequence: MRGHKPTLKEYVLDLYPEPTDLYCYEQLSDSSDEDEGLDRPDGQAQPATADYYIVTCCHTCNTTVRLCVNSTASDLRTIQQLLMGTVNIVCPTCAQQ

B1: ACAB452 (antibody, IgG1, V domains shown)
VH: DVQLQESGPGLVKPSQSLSLTCTVTGYSITSDYAWNWIRQFPGNKLEWVGYITYSGSTNYNPSLKSRISITRDTSKNQFFLQFNSVTSEDTATYFCARSWFAYWGQGTLVTVSS
VL: DIVMTQTPLSLPVSLGDQASISCRSSQSLVHSNGNTYLHWFLQKPGQSPKLLIYKVSNRFSGVPDRFSGSGSGTDFTLKISRVEAEDLGVYFCLQSAHVPLTFGAGTKLELTR
notes: also called HPV45E7 IgG1 antibody ACAB452
B2: ACAB164 (antibody, V domains shown)
VH: EVQLQQSGLALVQPGASVKISCRTSGYTFTEYTLHWVKQSHGKSLEWIGGINPNNGSPKYNQKFKGKATLTVDKSSSTAYMELRSLTSEDSAVYYCARLDINSFFDYWGQGTTLTVSS
VL: DVVMTQSPLSLPVSLGDQASISCRSSQSLVHSNGNTYLQWYLQKPGQSPKLLIYKLSNRFSGVPDRFSGSGSGTDFTLKISRVEAEDLGVYSCSQTTHVPPTFGGGTKLEIKR
notes: the printed entries run on into the first residues of the constant domains; also called HPV16E7 IgG2a antibody ACAB164
B3: ACAB161 (antibody, IgG2a, V domains shown)
VH: EVMLVESGGGLVKPGGSLKLSCAASGFTFSRYTMSWVRQTPEKRLEWVATISSGGTNTNYTDSVKGRFTISRDNAKNNLYLQMSSLRSEDTALYYCTRGVRRGDGYAMDYWGQGTSVTVSS
VL: DIVLTQAAPSVPVTPGESVSISCRSTKSLLHSNGNTYLYWFLQRPGQSPQALIYRTSNLASGVPDRFSGSGSGTAFTLRISRVEAEDVGVYYCMQHLEYPLTFGAGTKLELKR
notes: the printed entries run on into the first residues of the constant domains; also called HPV16E7 IgG2a antibody ACAB161

Key:
[1] = target: T1, HPV51 E7 protein, recombinant …; assay: ELISA and dot-blot, semiquantitative crossreactivity (++ strong positive)
Method: (§1) Using ELISA and dot-blot techniques semiquantitative crossreactivities of the isolated mAbs was analysed. For this various mAbs were tested against the accepted high risk species.

[2] = target: T2, HPV56 E7 protein, recombinant …; assay: as above
Method: as §1

[3] = target: T3, HPV35 E7 protein, recombinant …; assay: ELISA and dot-blot, semiquantitative crossreactivity (+ weak interaction)
Method: as §1

[4] = target: T4, HPV58 E7 protein, recombinant …; assay: ELISA, HPV58E7 immobilised on polystyrene plates in 3-fold dilution steps, detected with ACAB452
[5] = target: T5, HPV45 E7 protein, recombinant …; assay: SPR (BIAcore X100), biotin-E7 on streptavidin SA chip, antibody as analyte, bivalent analyte fit, 25 C
[6] = target: T6, HPV18 E7 protein, recombinant …; assay: as above
[7] = target: T6, HPV18 E7 protein, recombinant …; assay: ELISA and dot-blot, semiquantitative crossreactivity
Method: as §1

[8] = target: T7, HPV31 E7 protein, recombinant …; assay: ELISA and dot-blot, semiquantitative crossreactivity (++ strong positive)
Method: as §1

[9] = target: T8, HPV33 E7 protein, recombinant …; assay: as above
Method: as §1

[10] = target: T4, HPV58 E7 protein, recombinant …; assay: as above
Method: as §1

[11] = target: T3, HPV35 E7 protein, recombinant …; assay: as above
Method: as §1

| Binder | binding result [1] | binding result [2] | binding result [3] | binding result [4] | Kd [5] | kon [5] | kon [6] | binding result [7] | binding result [8] | binding result [9] | binding result [10] | binding result [11] |
| --- | --- | --- | --- | --- | --- | --- | --- | --- | --- | --- | --- | --- |
| B1 | binds | binds | binds | no binding (tested: 800 nM immobilised antigen (per legend)) | 10.6 nM | 52100 M⁻¹ s⁻¹ | 94700 M⁻¹ s⁻¹ | – | – | – | – | – |
| B2 | – | – | – | – | – | – | – | no binding | binds | binds | binds | binds |
| B3 | – | – | binds | – | – | – | – | – | binds | binds | – | – |

Reference: patent US20150023979A1 (VALDOSPAN, published 2015)
